Measured values as given in patent publication US9307782B2, “Mannanase produced from Cellulosimicrobium sp. strain HY-13” (Korea Research Institute of Bioscience and Biotechnology, priority 2011, dated 2016).
Read-outs that look alike come from different tables or passages of the source. Marks after values point to notes of the source that are not given here.

Legend:
[1] = Specific activity of mannanase (DNS reducing sugar assay); type: biochemical; settings: for Specific activity: pH 6.0, 50° C., 15 minutes
Procedure: To compare the mannanase activity to different matrixes, locust bean gum, ivory nut mannan and guar gum were used as matrixes and the activity of the purified mannanase to those matrixes were investigated.
(§1) The activity of β-1,4-mannanase was investigated by measuring the reduced amount of glucose isolated from locust bean gum using 3,5-dinitrosalicylic acid (DNS). At this time, D-mannose was used as a standard material. 0.5 Ml of a standard mixture composed of 0.5% locust bean gum was mixed with 0.05 Ml of an enzyme aqueous solution, followed by inducing biodegradation reaction in 50 mM sodium phosphate buffer (pH 6.0) at 50° C. for 15 minutes. The activity of the recombinated mannanase (1 IU) to the mannan substrate was defined as the amount of the protein necessary for the secretion of 1 μmol reducing sugar under the standard analysis condition. Chromogenic PNP-sugar derivative was used to measure another degrading activity of the said recombinated enzyme. The enzyme activity of the recombinated mannanase to the chromogenic substrate was measured under the same conditions as set for the analysis of β-1,4-mannanase activity. The activity of the recombinated mannanase (1 IU) to the PNP-sugar derivative was defined as the amount of the protein necessary for the production of 1 μmol PNP under the standard analysis condition.

[2] = type: physicochemical
Procedure: To determine the optimum reaction temperature of the mannanase, mannanase activity was measured at different temperatures of 37, 40, 45, 50, 55, 60, 65, and 70° C. To measure thermo-stability, the mannanase was heat-treated at the said temperatures for 15, 30, and 60 minutes and then the remained activity was measured. To determine the optimum reaction pH, the mannanase was treated respectively with 50 mM of sodium citrate buffer (pH 4.0˜5.5), phosphate buffer (pH 5.5˜7.5), Tris-HCl buffer (pH 7.5˜9.0), and glycine-NaOH buffer (pH 9.0˜10.0) in pH range of 4.0˜10.0 at 55° C. for 15 minutes, followed by measurement of enzyme reaction.

[3] = Specific activity of mannanase (substrate specificity); type: biochemical; settings: substrate Birchwood xylan
From the text: as §1, with “0.5 Ml of a standard mixture composed of 0.5% locust bean gum was mixed with 0.05 Ml of an enzyme aqueous solution, followed by inducing biodegradation reaction in 50 mM sodium phosphate buffer (pH 6.0) at 50° C. for 15 minutes.” left out, “Chromogenic PNP-sugar derivative was used to measure another degrading activity of the said recombinated enzyme.” left out

[4] = Binding of mannanase to insoluble polymer; settings: enzyme 5.0 IU/Ml, on ice two hours, pH 6.0
Procedure: The mannanase of the present invention contains two family 10 CBMs at C-terminal, which plays an important role in enzyme-substrate interaction. As the mannanase was expected to bind to various carbohydrate polymers, hydrophobic materials having microstructures including polysaccharide, poly(3HB) granules, and lignin were used as substrates to investigate enzyme-substrate binding activity of the mannanase.
Before analyzing the binding activity, insoluble substrates were washed with 50 mM sodium phosphate buffer (pH 6.0) 5 times, followed by measuring the binding capacity of the enzyme to the hydrophobic materials. Particularly, the enzyme diluted at the concentration of 5.0 IU/Ml was put on ice for two hours with the equal volume of a substrate polymer. The mixture was stirred every 5 minute. The mixture was centrifuged at 12,000×g to obtain supernatant. Then, the activity of β-1,4-mannanase thereof was measured.

[5] = toward locust bean gum; comparison enzymes of other strains; cited from earlier work
[6] = Analysis of degradation product (HPLC, LC-MS/MS); type: biochemical
Procedure: Mannooligomer (M2˜M5, 1 mg/100 μl each) and locust bean gum (1.4 mg/100 μl) were reacted in 50 mM sodium phosphate buffer (pH 6.0) containing 1 μg of the recombinant mannanase at 30° C. for 12 hours, followed by investigation of the hydrolysate. HPLC (high performance liquid chromatography) was performed by using Finnigan Surveyor™ Modular HPLC systems (Thermo Electron Co.) equipped with Asahipak NH2P-50 2D column (5 μm, 2.0×150 mm, Shodex) ran by Xcalibur software (version 1.3 SP2, Thermo Electron Co.). Elution buffer A (0.05% pomalus acid/sterilized water) and elution buffer B (acetonitrile and methanol (7:3) containing 0.05% pomalus acid) were used as moving phases. LC-MS/MS (liquid chromatography/tandem mass spectrometry) was performed by using Finnigan LCQ Advantage MAX ion trap mass spectrometer (Thermo Electron Co.).

[7] = Analysis of degradation product (HPLC, LC-MS/MS); type: biochemical; settings: substrate Ivory nut mannan; LC area %
Procedure: […] HPLC (high performance liquid chromatography) was performed by using Finnigan Surveyor™ Modular HPLC systems (Thermo Electron Co.) equipped with Asahipak NH2P-50 2D column (5 μm, 2.0×150 mm, Shodex) ran by Xcalibur software (version 1.3 SP2, Thermo Electron Co.). Elution buffer A (0.05% pomalus acid/sterilized water) and elution buffer B (acetonitrile and methanol (7:3) containing 0.05% pomalus acid) were used as moving phases. LC-MS/MS (liquid chromatography/tandem mass spectrometry) was performed by using Finnigan LCQ Advantage MAX ion trap mass spectrometer (Thermo Electron Co.).

[8] = Specific activity of mannanase (substrate specificity); type: biochemical
Procedure: as §1

[9] = substrate Locust bean gum, 1 μg recombinant mannanase, pH 6.0, 30° C., 12 hours, LC area %

B1: Mannanase: Wild type β-1,4-mannanase of Bacillus subtilis WY34 (protein)
chain: MRRLFAIVLGAVLALLAVPALAQGASVASDGFSVQDGRIYDANGNRFVPVGVNHAHAWYPSQTQSFADIRAAGANTVRVVLSGGRYGTSSAADVSAVVERCKQNQLVCILENHDTTGYGEDGSARSLASAAQYWTSIASVLRGQERYVMINIGNEPFGNSGFQSWTTDTIAAIRTLRAAGLDHTLVVDAPNWGQDWSFTMRDNAPTVAAADGNVVFSVHMYGVFDTGAEVRAYLDSFTSRGLPIMVGEFGDNHSDGNPDEATIMSYTRSQGIGMLGWSWSGNGGGVEYLDMVNGFSASSLTPWGQRFVHGADGLRARNAPAASVYGGDGGDGDGGAGTAPNGYPYCASASSDPDGDGWGWESSASCVVRGSSADTGSGGGSGSGSTAPNGYPYCASASSDPDGDGWGWESSASCVVRGSSADR
modifications: cellulosimicrobium
notes: Wild type β-1,4-mannanase of Bacillus subtilis WY34
- specific activity to ivory nut mannan relative to guar gum ([1]; ratio ivory nut mannan / guar gum): 15.2 fold
- specific activity to ivory nut mannan relative to locust bean gum ([1]; ratio ivory nut mannan / locust bean gum): 1.7 fold
- Specific activity ([1]; toward guar gum): 967 IU/mg
- Specific activity ([1]; toward insoluble ivory nut mannan): 14,711 IU/mg
- Specific activity ([1]; toward locust bean gum): 8,498 IU/mg
- Half life of the enzyme [2]: 15 min
- Thermolability ([2]; exposed on the temperature of 55° C.): rapidly increased
- degradation of carbohydrate [3]: not degraded
- binding to insoluble polymer ([4]; Avicel): strongly conjugated
- binding to insoluble polymer ([4]; chitin): strongly conjugated
- binding to insoluble polymer ([4]; chitosan): strongly conjugated
- binding to insoluble polymer ([4]; curdlan): not conjugated
- binding to insoluble polymer ([4]; insoluble ivory nut mannan): strongly conjugated
- binding to insoluble polymer ([4]; insoluble oat spelt xylan): not conjugated
- binding to insoluble polymer ([4]; lignin): not conjugated
- binding to insoluble polymer ([4]; poly(3HB) granules): not conjugated
- Specific activity [5]: 8,302^d IU/mg
- Composition (%) of products formed by hydrolysis reaction: M1 [6, 9]: 1.1%
- Composition (%) of products formed by hydrolysis reaction: M2 [6, 9]: 6.4%
- Composition (%) of products formed by hydrolysis reaction: M3 [6, 9]: 1.5%
- Composition (%) of products formed by hydrolysis reaction: M4 [6, 9]: 7.4%
- Composition (%) of products formed by hydrolysis reaction: M5 [6, 9]: 44.2%
- degradation of substrate ([6]; substrate M2 (printed N2)): not degraded
- hydrolysis products: mannooligomer (at least M6) ([6]; substrate locust bean gum, sum of M6 and larger): 39.4%
- Composition (%) of products formed by hydrolysis reaction: M4 [7]: 25.2%
- degradation of carbohydrate ([8]; substrate carboxymethylcellulose): not degraded
- degradation of carbohydrate ([8]; substrate pectin): not degraded
- degradation of carbohydrate ([8]; substrate soluble starch): not degraded
